We go through 19 molecules from publication PMC2888420 (The Journal of Biological Chemistry, 2010).

First the molecules themselves.
B10: fluorescently labeled phosphopeptide VNKpSYFND-fluorescein (peptide)
peptide: VNK[pS]YFND-fluorescein

For assay [1], the target named is B10. The assay can be described thus: fluorescence polarisation.
For assay [2], the target named is BRCA1 BRCT domains, wild type (residues 1646-1863) (UniProt P38398 1646-1863). Kind of assay: fluorescence polarisation. Background: In fluorescence polarisation assays a small probe gives low polarisation when free and higher when bound to something large.

Square brackets hold non-standard residues; d marks the D form. Ends that are not written are not given here. pS = N[C@@H](COP(=O)(O)O)C(=O)O

B1: BRCA1 BRCT A1843P (domain or fragment, UniProt P38398 1646-1863, looked up)
chain: VNKRMSMVVSGLTPEEFMLVYKFARKHHITLTNLITEETTHVVMKTDAEFVCERTLKYFLGIAGGKWVVSYFWVTQSIKERKMLNEHDFEVRGDVVNGRNHQGPKRARESQDRKIFRGLEICCYGPFTNMPTDQLEWMVQLCGASVVKELSSFTLGTGVHPIVVVQPDAWTEDNGFHAIGQMCEAPVVTREWVLDSVPLYQCQELDTYLIPQIPHSHY
In the case of B1, the “fold reduction in affinity against wild type” value (shortened to “fold reduction in affinity”) in assay [1] is no more than 1.5 fold.

B2: BRCA1 BRCT G1788V (domain or fragment, UniProt P38398 1646-1863, looked up)
chain: VNKRMSMVVSGLTPEEFMLVYKFARKHHITLTNLITEETTHVVMKTDAEFVCERTLKYFLGIAGGKWVVSYFWVTQSIKERKMLNEHDFEVRGDVVNGRNHQGPKRARESQDRKIFRGLEICCYGPFTNMPTDQLEWMVQLCVASVVKELSSFTLGTGVHPIVVVQPDAWTEDNGFHAIGQMCEAPVVTREWVLDSVALYQCQELDTYLIPQIPHSHY
On to B2, for which, in assay [1], the “fold reduction in affinity” value is roughly 1.4 fold.

B3: BRCA1 BRCT V1808A (domain or fragment, UniProt P38398 1646-1863, looked up)
chain: VNKRMSMVVSGLTPEEFMLVYKFARKHHITLTNLITEETTHVVMKTDAEFVCERTLKYFLGIAGGKWVVSYFWVTQSIKERKMLNEHDFEVRGDVVNGRNHQGPKRARESQDRKIFRGLEICCYGPFTNMPTDQLEWMVQLCGASVVKELSSFTLGTGVHPIAVVQPDAWTEDNGFHAIGQMCEAPVVTREWVLDSVALYQCQELDTYLIPQIPHSHY
Regarding B3, the “fold reduction in affinity” value in assay [1] is no more than 1.5 fold.

B4: BRCA1 BRCT M1652I (domain or fragment, UniProt P38398 1646-1863, looked up)
chain: VNKRMSIVVSGLTPEEFMLVYKFARKHHITLTNLITEETTHVVMKTDAEFVCERTLKYFLGIAGGKWVVSYFWVTQSIKERKMLNEHDFEVRGDVVNGRNHQGPKRARESQDRKIFRGLEICCYGPFTNMPTDQLEWMVQLCGASVVKELSSFTLGTGVHPIVVVQPDAWTEDNGFHAIGQMCEAPVVTREWVLDSVALYQCQELDTYLIPQIPHSHY
For B4, the “fold reduction in affinity” value in assay [1] is roughly 1.4 fold.

B5: BRCA1 BRCT M1775R (domain or fragment, UniProt P38398 1646-1863, looked up)
chain: VNKRMSMVVSGLTPEEFMLVYKFARKHHITLTNLITEETTHVVMKTDAEFVCERTLKYFLGIAGGKWVVSYFWVTQSIKERKMLNEHDFEVRGDVVNGRNHQGPKRARESQDRKIFRGLEICCYGPFTNRPTDQLEWMVQLCGASVVKELSSFTLGTGVHPIVVVQPDAWTEDNGFHAIGQMCEAPVVTREWVLDSVALYQCQELDTYLIPQIPHSHY
Take B5: the “fold reduction in affinity” value in assay [1] is roughly 1.4 fold.

B6: BRCA1 BRCT G1788D (domain or fragment, UniProt P38398 1646-1863, looked up)
chain: VNKRMSMVVSGLTPEEFMLVYKFARKHHITLTNLITEETTHVVMKTDAEFVCERTLKYFLGIAGGKWVVSYFWVTQSIKERKMLNEHDFEVRGDVVNGRNHQGPKRARESQDRKIFRGLEICCYGPFTNMPTDQLEWMVQLCDASVVKELSSFTLGTGVHPIVVVQPDAWTEDNGFHAIGQMCEAPVVTREWVLDSVALYQCQELDTYLIPQIPHSHY
For B6, the “fold reduction in affinity” value in assay [1] was no more than 1.5 fold.

B7: BRCA1 BRCT L1664P (domain or fragment, UniProt P38398 1646-1863, looked up)
chain: VNKRMSMVVSGLTPEEFMPVYKFARKHHITLTNLITEETTHVVMKTDAEFVCERTLKYFLGIAGGKWVVSYFWVTQSIKERKMLNEHDFEVRGDVVNGRNHQGPKRARESQDRKIFRGLEICCYGPFTNMPTDQLEWMVQLCGASVVKELSSFTLGTGVHPIVVVQPDAWTEDNGFHAIGQMCEAPVVTREWVLDSVALYQCQELDTYLIPQIPHSHY
B7: the “fold reduction in affinity” value in assay [1] was roughly 1.4 fold.

B8: BRCA1 BRCT M1783T (domain or fragment, UniProt P38398 1646-1863, looked up)
chain: VNKRMSMVVSGLTPEEFMLVYKFARKHHITLTNLITEETTHVVMKTDAEFVCERTLKYFLGIAGGKWVVSYFWVTQSIKERKMLNEHDFEVRGDVVNGRNHQGPKRARESQDRKIFRGLEICCYGPFTNMPTDQLEWTVQLCGASVVKELSSFTLGTGVHPIVVVQPDAWTEDNGFHAIGQMCEAPVVTREWVLDSVALYQCQELDTYLIPQIPHSHY
Turning to B8, the “fold reduction in affinity” value in assay [1] is no more than 1.5 fold.

B9: BRCA1 BRCT R1699Q (domain or fragment, UniProt P38398 1646-1863, looked up)
chain: VNKRMSMVVSGLTPEEFMLVYKFARKHHITLTNLITEETTHVVMKTDAEFVCEQTLKYFLGIAGGKWVVSYFWVTQSIKERKMLNEHDFEVRGDVVNGRNHQGPKRARESQDRKIFRGLEICCYGPFTNMPTDQLEWMVQLCGASVVKELSSFTLGTGVHPIVVVQPDAWTEDNGFHAIGQMCEAPVVTREWVLDSVALYQCQELDTYLIPQIPHSHY
As to B9, the “fold reduction in affinity” value in assay [1] is roughly 100 fold.
Consider B10, for which the affinity in assay [2], expressed as Kd, was 0.112 ± 0.006 µM.

B11: BRCA1 BRCT V1736A (domain or fragment, UniProt P38398 1646-1863, looked up)
chain: VNKRMSMVVSGLTPEEFMLVYKFARKHHITLTNLITEETTHVVMKTDAEFVCERTLKYFLGIAGGKWVVSYFWVTQSIKERKMLNEHDFEARGDVVNGRNHQGPKRARESQDRKIFRGLEICCYGPFTNMPTDQLEWMVQLCGASVVKELSSFTLGTGVHPIVVVQPDAWTEDNGFHAIGQMCEAPVVTREWVLDSVALYQCQELDTYLIPQIPHSHY
In the case of B11, the “fold reduction in affinity” value in assay [1] was roughly 5 fold.

B12: BRCA1 BRCT T1773S (domain or fragment, UniProt P38398 1646-1863, looked up)
chain: VNKRMSMVVSGLTPEEFMLVYKFARKHHITLTNLITEETTHVVMKTDAEFVCERTLKYFLGIAGGKWVVSYFWVTQSIKERKMLNEHDFEVRGDVVNGRNHQGPKRARESQDRKIFRGLEICCYGPFSNMPTDQLEWMVQLCGASVVKELSSFTLGTGVHPIVVVQPDAWTEDNGFHAIGQMCEAPVVTREWVLDSVALYQCQELDTYLIPQIPHSHY
In the case of B12, the “fold reduction in affinity” value in assay [1] is roughly 1.4 fold.

B13: BRCA1 BRCT R1751Q (domain or fragment, UniProt P38398 1646-1863, looked up)
chain: VNKRMSMVVSGLTPEEFMLVYKFARKHHITLTNLITEETTHVVMKTDAEFVCERTLKYFLGIAGGKWVVSYFWVTQSIKERKMLNEHDFEVRGDVVNGRNHQGPKQARESQDRKIFRGLEICCYGPFTNMPTDQLEWMVQLCGASVVKELSSFTLGTGVHPIVVVQPDAWTEDNGFHAIGQMCEAPVVTREWVLDSVALYQCQELDTYLIPQIPHSHY
In the case of B13, the “fold reduction in affinity” value in assay [1] was roughly 1.4 fold.

B14: BRCA1 BRCT D1692N (domain or fragment, UniProt P38398 1646-1863, looked up)
chain: VNKRMSMVVSGLTPEEFMLVYKFARKHHITLTNLITEETTHVVMKTNAEFVCERTLKYFLGIAGGKWVVSYFWVTQSIKERKMLNEHDFEVRGDVVNGRNHQGPKRARESQDRKIFRGLEICCYGPFTNMPTDQLEWMVQLCGASVVKELSSFTLGTGVHPIVVVQPDAWTEDNGFHAIGQMCEAPVVTREWVLDSVALYQCQELDTYLIPQIPHSHY
As to B14, the “fold reduction in affinity” value in assay [1] is roughly 1.4 fold.

B15: BRCA1 BRCT V1665M (domain or fragment, UniProt P38398 1646-1863, looked up)
chain: VNKRMSMVVSGLTPEEFMLMYKFARKHHITLTNLITEETTHVVMKTDAEFVCERTLKYFLGIAGGKWVVSYFWVTQSIKERKMLNEHDFEVRGDVVNGRNHQGPKRARESQDRKIFRGLEICCYGPFTNMPTDQLEWMVQLCGASVVKELSSFTLGTGVHPIVVVQPDAWTEDNGFHAIGQMCEAPVVTREWVLDSVALYQCQELDTYLIPQIPHSHY
As to B15, in assay [1], the “fold reduction in affinity” value is roughly 1.4 fold.

B16: BRCA1 BRCT R1699L (domain or fragment, UniProt P38398 1646-1863, looked up)
chain: VNKRMSMVVSGLTPEEFMLVYKFARKHHITLTNLITEETTHVVMKTDAEFVCELTLKYFLGIAGGKWVVSYFWVTQSIKERKMLNEHDFEVRGDVVNGRNHQGPKRARESQDRKIFRGLEICCYGPFTNMPTDQLEWMVQLCGASVVKELSSFTLGTGVHPIVVVQPDAWTEDNGFHAIGQMCEAPVVTREWVLDSVALYQCQELDTYLIPQIPHSHY
With B16, in assay [1], the “fold reduction in affinity” value is roughly 100 fold.

B17: BRCA1 BRCT D1778N (domain or fragment, UniProt P38398 1646-1863, looked up)
chain: VNKRMSMVVSGLTPEEFMLVYKFARKHHITLTNLITEETTHVVMKTDAEFVCERTLKYFLGIAGGKWVVSYFWVTQSIKERKMLNEHDFEVRGDVVNGRNHQGPKRARESQDRKIFRGLEICCYGPFTNMPTNQLEWMVQLCGASVVKELSSFTLGTGVHPIVVVQPDAWTEDNGFHAIGQMCEAPVVTREWVLDSVALYQCQELDTYLIPQIPHSHY
As to B17, the “fold increase in affinity against wild type” value in assay [1] is roughly 1.5 fold.

B18: BRCA1 BRCT G1706A (domain or fragment, UniProt P38398 1646-1863, looked up)
chain: VNKRMSMVVSGLTPEEFMLVYKFARKHHITLTNLITEETTHVVMKTDAEFVCERTLKYFLAIAGGKWVVSYFWVTQSIKERKMLNEHDFEVRGDVVNGRNHQGPKRARESQDRKIFRGLEICCYGPFTNMPTDQLEWMVQLCGASVVKELSSFTLGTGVHPIVVVQPDAWTEDNGFHAIGQMCEAPVVTREWVLDSVALYQCQELDTYLIPQIPHSHY
As to B18, the “fold reduction in affinity” value in assay [1] was roughly 1.4 fold.

B19: BRCA1 BRCT R1699W (domain or fragment, UniProt P38398 1646-1863, looked up)
chain: VNKRMSMVVSGLTPEEFMLVYKFARKHHITLTNLITEETTHVVMKTDAEFVCEWTLKYFLGIAGGKWVVSYFWVTQSIKERKMLNEHDFEVRGDVVNGRNHQGPKRARESQDRKIFRGLEICCYGPFTNMPTDQLEWMVQLCGASVVKELSSFTLGTGVHPIVVVQPDAWTEDNGFHAIGQMCEAPVVTREWVLDSVALYQCQELDTYLIPQIPHSHY
For the molecule B19, in assay [1], the “fold reduction in affinity” value was roughly 300 fold.
